In article PMC4803751, “Identification and Partial Characterization of a Novel UDP-N-Acetylenolpyruvoylglucosamine Reductase/UDP-N-Acetylmuramate:L-Alanine Ligase Fusion Enzyme from Verrucomicrobium spinosum DSM 4136^T” (Frontiers in Microbiology, 2016):

Legend:
Assay in all cases: radiometric HPLC assay of UDP-MurNAc-L-Ala formation
Assay type in all cases: biochemical, Verrucomicrobium spinosum
[1] = substrate: C[C@H](N)C(=O)O; settings: 5 mM ATP, 1 mM UDP-MurNAc, 10 mM MgCl2, 100 mM Tris-HCl pH 9.0, 10 mM ammonium sulfate, 0.5 mg/mL BSA, 37°C, L-Ala 10-400 μM, labelled compound, MurC activity
Excerpt: (§1) radiometric HPLC assay of UDP-MurNAc-L-Ala formation on MurB/CVs (MurCVs activity)

[2] = substrate: Nc1ncnc2c1ncn2[C@@H]1O[C@H](COP(=O)(O)OP(=O)(O)OP(=O)(O)O)[C@@H](O)[C@H]1O; settings: 1 mM UDP-MurNAc, 0.2 mM L-Ala, 10 mM MgCl2, 100 mM Tris-HCl pH 9.0, 10 mM ammonium sulfate, 0.5 mg/mL BSA, 37°C, ATP 0.2-5 mM, MurC activity
Excerpt: as §1

[3] = substrate: CC(=O)N[C@H]1[C@@H](OP(=O)(O)OP(=O)(O)OC[C@H]2O[C@@H](n3ccc(=O)[nH]c3=O)[C@H](O)[C@@H]2O)O[C@H](CO)[C@@H](O)[C@@H]1O[C@H](C)C(=O)O; settings: 5 mM ATP, 0.2 mM L-Ala, 10 mM MgCl2, 100 mM Tris-HCl pH 9.0, 10 mM ammonium sulfate, 0.5 mg/mL BSA, 37°C, UDP-MurNAc 25-500 μM, labelled compound, MurC activity
Excerpt: as §1

B1: MurB/CVs (MurCVs activity) (Verrucomicrobium spinosum) (protein)
chain: MNHAVVSLLKEGRHKMHVHLIGVAGSGMSGLALLLMELGHKVSGSDKVTTLETERMEKKGLIFHCPQSEREVEGADMVIYSSAVKPGNPAYEAAYRHGIPLVRRAEALAAIMARKHGVVVAGTHGKTTTSSMAAHVLRVGGAKPSHYVGAEIPILGSNAHWDDAGELFVAEGDESDGTLVKFEPRHAIILNIEAEHLDYYEDLNEIKLVFRQLLEKTSGYSVYCAEDPVATELCEGRKNGISYGWSRDHNFSANILELRPAQTRYEVFQKGELLGEVLLGIPGRHNVLNSLAAISLAVSVGVPFSSIKQALESFRGARRRFEVKYSGSQYQIIDDYGHHPTEIKATLATAKALNPKRIVCLFQPHRYSRTQLLKQEFGGAFNDVDVLCVTDVYAASEKPLPGVSGETILEEVKLQAPGVECHSTPKLLNARDLIGSKLRPGDLLITLGAGNVHEVGSALARDLKVAEQLTTVLNREGGGTVKLYEPMANHTTIRLGGPAQYWIEPMTIQGFAEVVKALRAALIPIRVIGRGSNLLVRDGGIKGAVLHPSKGEFDEVRVDGNFIFAATGVRLKKIASAARAAGLGGFEWMEGIPGNLGGALRMNAGAMGLQTFDQVVSVRFLDGNGELREKMKHEIDHQYRSVPELDRHFAVSAVLQGRPAEAAEIDEKLAASHQKRRGSQPIGASAGCIFKNPGPVPAGKLVDELGLKGRSFGKAIVSDVHGNFILNSGGGTARDVQDLISDIKQVALQERGIMLETEVQIIGEEEPLPL
Km [1]: 25 ± 10 µM
kcat [1]: 8 s⁻¹
Km [2]: 470 ± 160 µM
Km [3]: 90 ± 25 µM
